Results on five molecules are retold here after patent US9958461B2, “Detection of protein to protein interactions” (THE GOVERNING COUNCIL OF THE UNIVERSITY OF TORONTO, priority 2013, dated 2018).

For experiment [1], the target named is T1, EGFR-L858R (Homo sapiens, UniProt P00533, L858R).
T1 construct: with the advantage of testing full-length integral membrane proteins; (GGGGS)2 linker-Cub (human ubiquitin aa 35-76)-GAL4(1-147)-mNFkB(364-550) (C); expressed in transfected cells
Put plainly: MaMTH EGFR-interactor screen, lentiviral preys against EGFR-L858R bait (interaction score). Type of experiment: cell-based. As to conditions: MaMTH interaction score of prey with EGFR-L858R bait. On the procedure: (§1) After lentivirus harvest, target cells (stable 5×GAL4UAS-luciferase reporter-HEK293T cells) were infected at a multiplicity of infection (MOI) of around 0.3-0.4 to ensure single copy integration per cell. Cells were selected in puromycin for at least 48 h and transfected with either EGFR-wildtype or EGFR-L858R baits in triplicates. 24 h after transfection, cells were lysed and luciferase assays performed. On each set of interaction assays, various negative controls were included. To calculate a MaMTH-interaction scores, negative controls were averaged and the fold-change of luciferase activity compared to the averaged controls was calculated and defined as the interaction score.
(§2) Each set of experiments contains a defined set of negative controls in at least three replicates. Negative controls were chosen as such that there is a range of controls showing high-background luciferase activity (normally cytosolic proteins: Fabp5, Pex19) as well as medium-background luciferase activity (membrane-bound interactors: Pex7, GABBR2). Negative controls were averaged and the fold-change of luciferase activity was calculated. Using this method, we have a stringent cut-off and chose an interaction score >1 to be interacting proteins.
(§3) Our cut-off of 1 is based on fold-change difference in luciferase activity over averaged negative controls. Negative controls include cytosolic preys (which tend to promiscuously bind to many proteins), plasma membrane- and peroxisomal-prey proteins. In general, we chose stringent conditions by testing preys that tend to have high luciferase background with any bait tested, in order to generate high-confidence interaction data. […] Phosphorylated tyrosine residues on the receptor are typically docking sites for downstream cytoplasmic targets and recognized through SH2 or PTB domains^43.

For experiment [2], the target named is T2, EGFR-Wt (Homo sapiens, UniProt P00533).
T2 construct: with the advantage of testing full-length integral membrane proteins; (GGGGS)2 linker-Cub (human ubiquitin aa 35-76)-GAL4(1-147)-mNFkB(364-550) (C); expressed in transfected cells
Put plainly: MaMTH EGFR-interactor screen, lentiviral preys against EGFR-wildtype bait (interaction score). Type of experiment: cell-based. Conditions: MaMTH interaction score of prey with EGFR-Wt bait, mean. The protocol: as §1, §2, §3

Experiment [3] has as its system EGFR-Wt. The experiment is described as above. Type of experiment: cell-based, human. Conditions: ratio of EGFR-Wt mean to EGFR-L858R mean interaction score. The protocol: as §1, §2, §3

B1: APBB2 (protein, UniProt Q92870 1-758, looked up)
Amyloid beta precursor …: MSEVLPADSGVDTLAVFMASSGTTDVTNRNSPATPPNTLNLRSSHNELLNAEIKHTETKNSTPPKCRKKYALTNIQAAMGLSDPAAQPLLGNGSANIKLVKNGENQLRKAAEQGQQDPNKNLSPTAVINITSEKLEGKEPHPQDSSSCEILPSQPRRTKSFLNYYADLETSARELEQNRGNHHGTAEEKSQPVQGQASTIIGNGDLLLQKPNRPQSSPEDGQVATVSSSPETKKDHPKTGAKTDCALHRIQNLAPSDEESSWTTLSQDSASPSSPDETDIWSDHSFQTDPDLPPGWKRVSDIAGTYYWHIPTGTTQWERPVSIPADLQGSRKGSLSSVTPSPTPENEKQPWSDFAVLNGGKINSDIWKDLHAATVNPDPSLKEFEGATLRYASLKLRNAPHPDDDDSCSINSDPEAKCFAVRSLGWVEMAEEDLAPGKSSVAVNNCIRQLSYCKNDIRDTVGIWGEGKDMYLILENDMLSLVDPMDRSVLHSQPIVSIRVWGVGRDNGRDFAYVARDKDTRILKCHVFRCDTPAKAIATSLHEICSKIMAERKNAKALACSSLQERANVNLDVPLQVDFPTPKTELVQKFHVQYLGMLPVDKPVGMDILNSAIENLMTSSNKEDWLSVNMNVADATVTVISEKNEEEVLVECRVRFLSFMGVGKDVHTFAFIMDTGNQRFECHVFWCEPNAGNVSEAVQAACMLRYQKCLVARPPSQKVRPPPPPADSVTRRVTTNVKRGVLSLIDTLKQKRPVTEMP
For B1, the EGFR-L858R mean in experiment [1] came to 2.92. Besides, in experiment [2], the EGFR-Wt mean is on record as 3.05. For the same molecule, the Wt/L858R in experiment [3] was determined as 1.05.

B2: SH3GL3 (protein, UniProt Q99963 1-347, looked up)
Endophilin-A3: MSVAGLKKQFHKASQLFSEKISGAEGTKLDDEFLDMERKIDVTNKVVAEILSKTTEYLQPNPAYRAKLGMLNTVSKIRGQVKTTGYPQTEGLLGDCMLKYGKELGEDSTFGNALIEVGESMKLMAEVKDSLDINVKQTFIDPLQLLQDKDLKEIGHHLKKLEGRRLDYDYKKKRVGKIPDEEVRQAVEKFEESKELAERSMFNFLENDVEQVSQLAVFIEAALDYHRQSTEILQELQSKLQMRISAASSVPRREYKPRPVKRSSSELNGVSTTSVVKTTGSNIPMDQPCCRGLYDFEPENQGELGFKEGDIITLTNQIDENWYEGMIHGESGFFPINYVEVIVPLPQ
B2 yielded an EGFR-L858R mean in experiment [1] of 3.26. For the same molecule, the EGFR-Wt mean in experiment [2] was determined as 3.41. The Wt/L858R in experiment [3] was determined as 1.05.

B3: RAPGEF1 (protein, UniProt Q13905 1-1077, looked up)
Rap guanine nucleotide …: MDTDSQRSHLSSFTMKLMDKFHSPKIKRTPSKKGKPAEVSVKIPEKPVNKEATDRFLPEGYPLPLDLEQQAVEFMSTSAVASRSQRQKNLSWLEEKEKEVVSALRYFKTIVDKMAIDKKVLEMLPGSASKVLEAILPLVQNDPRIQHSSALSSCYSRVYQSLANLIRWSDQVMLEGVNSEDKEMVTTVKGVIKAVLDGVKELVRLTIEKQGRPSPTSPVKPSSPASKPDGPAELPLTDREVEILNKTTGMSQSTELLPDATDEEVAPPKPPLPGIRVVDNSPPPALPPKKRQSAPSPTRVAVVAPMSRATSGSSLPVGINRQDFDVDCYAQRRLSGGSHSYGGESPRLSPCSSIGKLSKSDEQLSSLDRDSGQCSRNTSCETLDHYDPDYEFLQQDLSNADQIPQQTAWNLSPLPESLGESGSPFLGPPFQLPLGGHPQPDGPLAPGQQTDTPPALPEKKRRSAASQTADGSGCRVSYERHPSQYDNISGEDLQSTAPIPSVPYAPFAAILPFQHGGSSAPVEFVGDFTAPESTGDPEKPPPLPEKKNKHMLAYMQLLEDYSEPQPSMFYQTPQNEHIYQQKNKLLMEVYGFSDSFSGVDSVQELAPPPALPPKQRQLEPPAGKDGHPRDPSAVSGVPGKDSRDGSERAPKSPDALESAQSEEEVDELSLIDHNEIMSRLTLKQEGDDGPDVRGGSGDILLVHATETDRKDLVLYCEAFLTTYRTFISPEELIKKLQYRYEKFSPFADTFKKRVSKNTFFVLVRVVDELCLVELTEEILKLLMELVFRLVCNGELSLARVLRKNILDKVDQKKLLRCATSSQPLAARGVAARPGTLHDFHSHEIAEQLTLLDAELFYKIEIPEVLLWAKEQNEEKSPNLTQFTEHFNNMSYWVRSIIMLQEKAQDRERLLLKFIKIMKHLRKLNNFNSYLAILSALDSAPIRRLEWQKQTSEGLAEYCTLIDSSSSFRAYRAALSEVEPPCIPYLGLILQDLTFVHLGNPDYIDGKVNFSKRWQQFNILDSMRCFQQAHYDMRRNDDIINFFNDFSDHLAEEALWELSLKIKPRNITRRKTDREEKT
B3 registered an EGFR-L858R mean in experiment [1] of 3.15. The molecule also registered an EGFR-Wt mean in experiment [2] of 3.48. Further, the Wt/L858R in experiment [3] came out at 1.10.

B4: TNK2 (protein, UniProt Q07912 1-1038, looked up)
Activated CDC42 kinase 1: MQPEEGTGWLLELLSEVQLQQYFLRLRDDLNVTRLSHFEYVKNEDLEKIGMGRPGQRRLWEAVKRRKALCKRKSWMSKVFSGKRLEAEFPPHHSQSTFRKTSPAPGGPAGEGPLQSLTCLIGEKDLRLLEKLGDGSFGVVRRGEWDAPSGKTVSVAVKCLKPDVLSQPEAMDDFIREVNAMHSLDHRNLIRLYGVVLTPPMKMVTELAPLGSLLDRLRKHQGHFLLGTLSRYAVQVAEGMGYLESKRFIHRDLAARNLLLATRDLVKIGDFGLMRALPQNDDHYVMQEHRKVPFAWCAPESLKTRTFSHASDTWMFGVTLWEMFTYGQEPWIGLNGSQILHKIDKEGERLPRPEDCPQDIYNVMVQCWAHKPEDRPTFVALRDFLLEAQPTDMRALQDFEEPDKLHIQMNDVITVIEGRAENYWWRGQNTRTLCVGPFPRNVVTSVAGLSAQDISQPLQNSFIHTGHGDSDPRHCWGFPDRIDELYLGNPMDPPDLLSVELSTSRPPQHLGGVKKPTYDPVSEDQDPLSSDFKRLGLRKPGLPRGLWLAKPSARVPGTKASRGSGAEVTLIDFGEEPVVPALRPCAPSLAQLAMDACSLLDETPPQSPTRALPRPLHPTPVVDWDARPLPPPPAYDDVAQDEDDFEICSINSTLVGAGVPAGPSQGQTNYAFVPEQARPPPPLEDNLFLPPQGGGKPPSSAQTAEIFQALQQECMRQLQAPAGSPAPSPSPGGDDKPQVPPRVPIPPRPTRPHVQLSPAPPGEEETSQWPGPASPPRVPPREPLSPQGSRTPSPLVPPGSSPLPPRLSSSPGKTMPTTQSFASDPKYATPQVIQAPGPRAGPCILPIVRDGKKVSSTHYYLLPERPSYLERYQRFLREAQSPEEPTPLPVPLLLPPPSTPAPAAPTATVRPMPQAALDPKANFSTNNSNPGARPPPPRATARLPQRGCPGDGPEAGRPADKIQMAMVHGVTTEECQAALQCHGWSVQRAAQYLKVEQLFGLGLRPRGECHKVLEMFDWNLEQAGCHLLGSWGPAHHKR
On to B4, for which the EGFR-L858R mean in experiment [1] worked out at 1.30. For the same molecule, in experiment [2], the EGFR-Wt mean is 1.51. Moreover, the Wt/L858R in experiment [3] is given as 1.16.

B5: GRAP2 (protein, UniProt O75791 1-330, looked up)
GRB2-related adapter protein 2: MEAVAKFDFTASGEDELSFHTGDVLKILSNQEEWFKAELGSQEGYVPKNFIDIQFPKWFHEGLSRHQAENLLMGKEVGFFIIRASQSSPGDFSISVRHEDDVQHFKVMRDNKGNYFLWTEKFPSLNKLVDYYRTNSISRQKQIFLRDRTREDQGHRGNSLDRRSQGGPHLSGAVGEEIRPSMNRKLSDHPPTLPLQQHQHQPQPPQYAPAPQQLQQPPQQRYLQHHHFHQERRGGSLDINDGHCGTGLGSEMNAALMHRRHTDPVQLQAAGRVRWARALYDFEALEDDELGFHSGEVVEVLDSSNPSWWTGRLHNKLGLFPANYVAPMTR
Turning to B5, in experiment [1], the EGFR-L858R mean worked out at 8.12. The molecule also yielded an EGFR-Wt mean in experiment [2] of 1.79. Further, in experiment [3], the Wt/L858R is given as 0.22.
